# Laboratory results taken from patent US20030082194A1, “Compositions and methods for diagnosis and therapy of malignant mesothelioma” (priority 2000, published 2003).
# Columns and labels:
# [1] = Systemic histopathological and toxicological effects of WT1 protein immunization in mice; assay type: in vivo, mouse
# From the text: (§1) The purpose of this example is to analyze the immunogenicity and potential systemic histopathological and toxicological effects of WT1 protein immunization in a multiple dose titration in mice.
# (§2) The experimental design for immunization of mice with WT1 protein is outlined in Table 51.
# Special emphasis was put on evaluation of potential hematopoietic toxicity. The myeloid/erythroid ratio in sternum and femur marrow was normal.
# [2] = test system: WT1; assay: Immunogenicity of WT1 protein immunization with MPL-SE, multiple dose titration in mice (Table 51); assay type: in vivo, mouse; details: MPL-SE adjuvant; doses 25 μg, 100 μg to 1000μg WT1 protein; female C57/B6 mice
# From the text: as §1, §2
# [3] = even on an outpatient basis; cited from earlier work
# [4] = mice immunized with WT1 protein
Substance,"histological evidence for toxicity in tissues ([1]; adrenal gland, brain, colon, heart, kidney, liver, lung, marrow, spleen and other listed tissues)","blood cell counts and blood chemistry (BUN, creatinine, bilirubin, albumin, globulin) [1, 4]","myeloid/erythroid ratio in sternum and femur marrow [1, 4]","systemic histopathological or toxicological effects of immunization ([1]; mice, multiple dose titration)",WT1-specific antibody response [2],cellular T-cell responses [2],dose known to be safe for human use [3] [μg/m^2]
WT1 protein: WT1 protein used for vaccination of mice with MPL-SE as adjuvant,No histological evidence for toxicity,within the normal range,normal,No systemic histopathological or toxicological effects,elicited a strong WT1-specific antibody response,cellular T-cell responses,–
monophosphoryl lipid A [MPL],–,–,–,–,–,–,100
